# Biological target: KaiC (Synechococcus elongatus) (UniProt Q79PF4)
# Test: not given
# Details: cited from earlier work
row,Molecule,Kd
1,KaiA (from UniProt Q79PF6),2500 nM

# Biological target: the molecule itself
# Test: native gel or EMSA; 8% native gel of the purified proteins, to analyse their oligomerization statuses
# Details: not given
row,Molecule,binding result
1,"wild-type KaiA of Synechococcus elongatus PCC 7942 (natural protein, KaiA, Synechococcus elongatus PCC 7942; expressed from pGEX-6P-1; Plasmid provided by Dr. Carl Johnson; also called the wild-type KaiA) MLSQIAICIWVESTAILQDCQRALSADRYQLQVCESGEMLLEYAQTHRDQIDCLILVAANPSFRAVVQQLCFEGVVVPAIVVGDRDSEDPDEPAKEQLYHSAELHLGIHQLEQLPYQVDAALAEFLRLAPVETMADHIMLMGANHDPELSSQQRDLAQRLQERLGYLGVYYKRDPDRFLRNLPAYESQKLHQAMQTSYREIVLSYFSPNSNLNQSIDNFVNMAFFADVPVTKVVEIHMELMDEFAKKLRVEGRSEDILLDYRLTLIDVIAHLCEMYRRSIPRET",binds
2,"KaiA-1-1 (natural protein, Synechococcus elongatus PCC 7942, KaiA, Synechococcus elongatus PCC 7942, with the mutations of Cluster I; R249 belongs to the cluster but was not mutated; The oligomer state is said to be the same as that of the wild type; also called KaiA mutant of Cluster I) MLSQIAICIWVESTAILQDCQRALSADRYQLQVCESGEMLLEYAQTHRDQIDCLILVAANPSFRAVVQQLCFEGVVVPAIVVGDRDSEDPDEPAKEQLYHSAELHLGIHQLEQLPYQVDAALAEFLRLAPVETMADHIMLMGANHDPELSSQQRDLAQRLQERLGYLGVYYKRDPDRFLRNLPAYESQKLHQAMQTSYREIVLSYFSPNSNLNQSIDNFVNMAFFADVPVTKVVEIHMNLMDEFWKKLRVEGRSEDILLDYRLTLIDVIAHLCEMYRRSIPRET",binds
3,"KaiA-2-1 (natural protein, Synechococcus elongatus PCC 7942, KaiA, Synechococcus elongatus PCC 7942, with the mutation of Cluster II; The oligomer state is said to be the same as that of the wild type; also called KaiA mutant of Cluster II) MLSQIAICIWVESTAILQDCQRALSADRYQLQVCESGEMLLEYAQTHRDQIDCLILVAANPSFRAVVQQLCFEGVVVPAIVVGDRDSEDPDEPAKEQLYHSAELHLGIHQLEQLPYQVDAALAEFLRLAPVETMADHIMLMGANHDPELSSQQRDLAQRLQERLGYLGVYYKRDPDRFLRNLPAYESQKLHQAMQTSYREIVLSYFSPNSNLNQSIDNFVNMAFFADVPVTKVVEIHMELMDEFAKKLRVEGRSEDILQDYRLTLIDVIAHLCEMYRRSIPRET",binds
4,"KaiA-3-1 (natural protein, Synechococcus elongatus PCC 7942, KaiA, Synechococcus elongatus PCC 7942, with the mutations of Cluster III; The oligomer state is said to be the same as that of the wild type; also called KaiA mutant of Cluster III) MLSQIAICIWVESTAILQDCQRALSADRYQLQVCESGEMLLEYAQTHRDQIDCLILVAANPSFRAVVQQLCFEGVVVPAIVVGDRDSEDPDEPAKEQLYHSAELHLGIHQLEQLPYQVDAALAEFLRLAPVETMADHIMLMGANHDPELSSQQRDLAQRLQERLGYLGVYYKRDPDRFLRNLPAYESQKLHQAMQTSYREIVLSYFSPNSNLNQSIDNFVNMAFFADVPVTKVVEIHMELMDEFAKKLRVEGHKEDFLLDYRLTLIDVIAHLCEMYRRSIPRET",binds
5,"wild-type KaiC of Synechococcus elongatus PCC 7942 (enzyme, KaiC, Synechococcus elongatus PCC 7942; expressed from pGEX-6P-1; The sample is a mixture of phosphorylated and de-phosphorylated KaiC (sites T432 and S431); also called the wild-type KaiC) MTSAEMTSPNNNSEHQAIAKMRTMIEGFDDISHGGLPIGRSTLVSGTSGTGKTLFSIQFLYNGIIEFDEPGVFVTFEETPQDIIKNARSFGWDLAKLVDEGKLFILDASPDPEGQEVVGGFDLSALIERINYAIQKYRARRVSIDSVTSVFQQYDASSVVRRELFRLVARLKQIGATTVMTTERIEEYGPIARYGVEEFVSDNVVILRNVLEGERRRRTLEILKLRGTSHMKGEYPFTITDHGINIFPLGAMRLTQRSSNVRVSSGVVRLDEMCGGGFFKDSIILATGATGTGKTLLVSRFVENACANKERAILFAYEESRAQLLRNAYSWGMDFEEMERQNLLKIVCAYPESAGLEDHLQIIKSEINDFKPARIAIDSLSALARGVSNNAFRQFVIGVTGYAKQEEITGLFTNTSDQFMGAHSITDSHISTITDTIILLQYVEIRGEMSRAINVFKMRGSWHDKAIREFMISDKGPDIKDSFRNFERIISGSPTRITVDEKSELSRIVRGVQEKGPES",binds
6,"KaiC-1-1 (enzyme, Synechococcus elongatus PCC 7942, KaiC, Synechococcus elongatus PCC 7942, with the mutation of Cluster I; The oligomer state is said to be the same as that of the wild type; also called KaiC mutant of Cluster I) MTSAEMTSPNNNSEHQAIAKMRTMIEGFDDISHGGLPIGRSTLVSGTSGTGKTLFSIQFLYNGIIEFDEPGVFVTFEETPQDIIKNARSFGWDLAKLVDEGKLFILDASPDPEGQEVVGGFDLSALIERINYAIQKYRARRVSIDSVTSVFQQYDASSVVRRELFRLVARLKQIGATTVMTTERIEEYGPIARYGVEEFVSDNVVILRNVLEGERRRRTLEILKLRGTSHMKGEYPFTITDHGINIFPLGAMRLTQRSSNVRVSSGVVRLDEMCGGGFFKDSIILATGATGTGKTLLVSRFVENACANKERAILFAYEESRAQLLRNAYSWGMDFEEMERQNLLKIVCAYPESAGLEDHLQIIKSEINDFKPARIAIDSLSALARGVSNNAFRQFVIGVTGYAKQEEITGLFTNTSDQFMGAHSITDSHISTITDTIILLQYVEIRGEMSRAINVFKMRGSWHDKAIREFMISDKGPDIKDSFRNFERIISGSPTRITVDERSELSRIVRGVQEKGPES",binds
7,"KaiC-2-1 (enzyme, Synechococcus elongatus PCC 7942, KaiC, Synechococcus elongatus PCC 7942, with the mutations of Cluster II; The oligomer state is said to be the same as that of the wild type; also called KaiC mutant of Cluster II) MTSAEMTSPNNNSEHQAIAKMRTMIEGFDDISHGGLPIGRSTLVSGTSGTGKTLFSIQFLYNGIIEFDEPGVFVTFEETPQDIIKNARSFGWDLAKLVDEGKLFILDASPDPEGQEVVGGFDLSALIERINYAIQKYRARRVSIDSVTSVFQQYDASSVVRRELFRLVARLKQIGATTVMTTERIEEYGPIARYGVEEFVSDNVVILRNVLEGERRRRTLEILKLRGTSHMKGEYPFTITDHGINIFPLGAMRLTQRSSNVRVSSGVVRLDEMCGGGFFKDSIILATGATGTGKTLLVSRFVENACANKERAILFAYEESRAQLLRNAYSWGMDFEEMERQNLLKIVCAYPESAGLEDHLQIIKSEINDFKPARIAIDSLSALARGVSNNAFRQFVIGVTGYAKQEEITGLFTNTSDQFMGAHSITDSHISTITDTIILLQYVEIRGEMSRAINVFKMRGSWHDKAIREFMISDKGPDIKDSFRNFERIISGSPTRVTTDEKTELSRIVRGVQEKGPES",binds
8,"KaiC-3-1 (enzyme, Synechococcus elongatus PCC 7942, KaiC, Synechococcus elongatus PCC 7942, with the mutations of Cluster III; The oligomer state is said to be the same as that of the wild type; also called KaiC mutant of Cluster III) MTSAEMTSPNNNSEHQAIAKMRTMIEGFDDISHGGLPIGRSTLVSGTSGTGKTLFSIQFLYNGIIEFDEPGVFVTFEETPQDIIKNARSFGWDLAKLVDEGKLFILDASPDPEGQEVVGGFDLSALIERINYAIQKYRARRVSIDSVTSVFQQYDASSVVRRELFRLVARLKQIGATTVMTTERIEEYGPIARYGVEEFVSDNVVILRNVLEGERRRRTLEILKLRGTSHMKGEYPFTITDHGINIFPLGAMRLTQRSSNVRVSSGVVRLDEMCGGGFFKDSIILATGATGTGKTLLVSRFVENACANKERAILFAYEESRAQLLRNAYSWGMDFEEMERQNLLKIVCAYPESAGLEDHLQIIKSEINDFKPARIAIDSLSALARGVSNNAFRQFVIGVTGYAKQEEITGLFTNTSDQFMGAHSITDSHISTITDTIILLQYVEIRGEMSRAINVFKMRGSWHDKAIREFMISDKGPDIKDSFRNFERIISGVPHRITVDEKSELSRIVRGVQEKGPES",binds

# — paper PMC4844972, “A dynamic interaction process between KaiA and KaiC is critical to the cyanobacterial circadian oscillator” (Scientific Reports, 2016)
